Results on one substance are retold here after patent EP1438388B1.

For assay [1], the target named is putative IBC-1 receptor on G361 melanoma cells, lower affinity binding site (human). Nature of the assay: Scatchard analysis of AP-IBC-1 binding to G361 melanoma cells, bound AP activity; lower affinity slope.
Assay [2] deals with putative IBC-1 receptor on G361 melanoma cells, moderately high affinity binding site (human). Nature of the assay: Scatchard analysis of AP-IBC-1 binding to G361 melanoma cells, bound AP activity; moderately high affinity slope.
The target of assay [3] is putative IBC-1 receptor on G361 melanoma cells, lower affinity binding site (human). Nature of the assay: Scatchard analysis of AP-IBC-1 binding to G361 melanoma cells; lower affinity slope.
Assay [4] addresses putative IBC-1 receptor on G361 melanoma cells, moderately high affinity binding site (human). In words: Scatchard analysis of AP-IBC-1 binding to G361 melanoma cells; moderately high affinity slope.

As usually defined, the Kd is the equilibrium constant for the complex coming apart. Low readings indicate higher affinity, high ones lower affinity. With “alkaline phosphatase-IBC-1 fusion protein (from UniProt P81605 20-110) (ligand)”, the results for the dissociation constant (Kd) in assay [1] and in assay [2] were 360 nM and 37.5 nM, respectively. Further, the binding sites/cell (binding sites/cell) in assay [3] is 350000; in assay [4], 17000.
